According to US8216581 (University of Pennsylvania, dated 2012):
Where a chain is given by its changes, count along the chain named.

B1: H46L16 (Fab, V domains shown)
VH: QVQLVESGGGVVQPGRSLRLSCAASGFTFSNFNMHWVRQAPGKGLEWVALISYDGSNKNYADSVKGRFTISRDNSKNTLFLQMNSLRAEDTAVYYCMVVGAFDYWGQGTLVTVSS
VL: DIQMTQSPSSLSASVGDRVTITCRASQGISSYLAWYQQKPGKVPKLLIYAASTLQSGVPSRFSGSGSGTDFTLTISSLQPEDVATYYCQKYNSAPLTFGGGTKVEIK
notes: Soluble Fab, ITP patient A, clone A
B2: H47L63 (Fab, V domains shown)
VH: B1 VH with A24T, D62N, A88V
VL: EIVLTQSPGTLSLSPGERATLSCRASQSVGNNYLAWYQQRPGRAPRLVMYDPSSRATGIPDRFSGSGSGTDFTLTISRLEPEDFAVYYCQQYGNSPPTFGGGTKVEIK
notes: Soluble Fab, clone A
B3: H47L64 (Fab, V domains shown)
VH: B1 VH with A24T, D62N, A88V
VL: EIVLTQSPDTLSLSPGDRATLSCRASQSVSNYLAWYQQKAGRAPSLLIYGTSRRATDIPDRFSGSGSGTDFTLTISRLEPEDSAVYYCQQYGSASLTFGGGTKVEIK
notes: Soluble Fab, clone A; also called putative GPIb/IX-specific Fab
B4: H45L61 (Fab, V domains shown)
VH: B1 VH with N57S, N59Y, A61T, F80Y, A88P
VL: EIVLTQSPGTLSLSPGERATLSCRASQSVGSSYLAWYQQKPGQAPRLLIYGVSSRATGIPDRFSGSGSGTDFTLTISRLEPEDFAVYYCQQYGGSPLTFGGGTTVEIK
notes: Soluble Fab, clone A
B5: H83L34 (Fab, V domains shown)
VH: QVQLQESGPGLVKPSETLSLTCTVSGGSISSYYWSWIRQPPGKGLEYIGYIYYSGSTDYNPSLKSRVTISVDTSENQFSLKLSSVTAADTAVYYCARSPPVIRPAMDVWGQGTTVTVSS
VL: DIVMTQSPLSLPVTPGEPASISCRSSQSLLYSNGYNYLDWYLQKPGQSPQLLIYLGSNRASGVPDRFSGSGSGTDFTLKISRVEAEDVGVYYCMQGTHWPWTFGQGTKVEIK
notes: Soluble Fab
B6: H48L24 (Fab, V domains shown)
VH: QVQLVESGGGVVQPGRSLRLSCAASGFTISNYHIHWVRQAPGKGLEWVAFISYDGSNKYYADSVKGRFTISRDNSKNTLFLQMNSLTTEDTAVYYCAIVGPFDYRGQGTLVTVSS
VL: DIQLTQSPTFLSASVGDRVTITCRASQGISRYLAWYQQKPGKAPKLLIYAASTLQSGVPSRFSGSGSGTDFTLTFSSLQPEDFATYYCQQLNSYPFTFGGGTTVEIK
notes: Soluble Fab, clone A
B7: H40L36 (Fab, V domains shown)
VH: QVQLVESGGGVVQPGRSLRLSCAASTFTFSNYAMHWVRQAPGKGLEWVAVISYDGSNKYYADSVKGRFTISRDNSKNTLYLQMNSLRPEDTAVYYCARGGVAAFDYWGQGTLVTVSS
VL: not shown
notes: Soluble Fab
B8: H38L49 (Fab, V domains shown)
VH: B7 VH with T26G, A102G
VL: not shown
notes: Soluble Fab
B9: H38L55 (Fab, V domains shown)
VH: B7 VH with T26G, A102G
VL: DIVMTQSPLSLPVTPGEPASISCRSNQSVLHSNGRHYLDWYLQKPGQSPQLLIYMVFNRASGVPDRFSGSGSGTDFTLKISRVESEDVGVYYCMQAQQTPVTFGQGTRLDIK
notes: Soluble Fab
B10: H37L40 (Fab, V domains shown)
VH: B7 VH with T26G
VL: DIVMTQSPLSLSVSPGEPASISCRSSQSLLDSNGHNFLDWYLQKPGQSPQLLIFVGSYRALGVPDRFTGSGTGTDFTLKISRVEPEDVGVYYCMQGLQAPITFGQGTKLDIK
notes: Soluble Fab
B11: H38L72 (Fab, V domains shown)
VH: B7 VH with T26G, A102G
VL: EIVLTQSPATLSVSPGERATLSCRASQSVSSYLAWYQQKPGQAPRLLIYDASNRATGIPARFSGSGSGTDFTLTISSLEPEDFAVYYCQQRSNWPLTFGQGTKVEIK
notes: Soluble Fab
B12: H42L38 (Fab, V domains shown)
VH: B7 VH with G10A, V11M, T26G, T28P
VL: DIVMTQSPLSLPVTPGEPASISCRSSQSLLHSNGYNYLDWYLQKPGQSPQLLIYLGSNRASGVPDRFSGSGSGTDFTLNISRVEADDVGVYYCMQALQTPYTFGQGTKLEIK
notes: Soluble Fab
B13: H38L39 (Fab, V domains shown)
VH: B7 VH with T26G, A102G
VL: DIVMTQSPPSLPVTPGEPASISCRSSQSLLHTNGYNYLDWYLQKPGQSPQLLIYLGSNRASGVPDRFSGSGSGTDFTLTISRVEAEDVGVFYCMQALEPPYTFGQGTKLEIK
notes: Soluble Fab
B14: H36L35 (Fab, V domains shown)
VH: B7 VH with T26G, N31S
VL: not shown
notes: Soluble Fab
B15: H40L52 (Fab, V domains shown)
VH: B7 VH
VL: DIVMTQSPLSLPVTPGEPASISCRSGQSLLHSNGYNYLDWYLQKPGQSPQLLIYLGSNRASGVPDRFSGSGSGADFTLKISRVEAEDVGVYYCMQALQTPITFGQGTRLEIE
notes: Soluble Fab
B16: H37L50 (Fab, V domains shown)
VH: B7 VH with T26G
VL: not shown
notes: Soluble Fab, clone B
B17: H37L44 (Fab, V domains shown)
VH: B7 VH with T26G
VL: DIVMTQSPVSLAVTPGEPASISCRSSQSLLHSNGYNYLDWYLQKPGQSPQLLIYLGSTRASGVPDRFSGSGSGTDFTLKINRVEAEDVGVYYCMQALQSPFTFGGGTKVEIK
notes: Soluble Fab
B18: H37L47 (Fab, V domains shown)
VH: B7 VH with T26G
VL: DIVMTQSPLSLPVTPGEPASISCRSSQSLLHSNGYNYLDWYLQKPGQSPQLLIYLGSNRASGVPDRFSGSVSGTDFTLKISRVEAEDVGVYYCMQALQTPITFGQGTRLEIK
notes: Soluble Fab
B19: H37L48 (Fab, V domains shown)
VH: B7 VH with T26G
VL: not shown
notes: Soluble Fab
B20: H37L45 (Fab, V domains shown)
VH: B7 VH with T26G
VL: B17 VL with E110Q
notes: Soluble Fab
B21: H37L41 (Fab, V domains shown)
VH: B7 VH with T26G
VL: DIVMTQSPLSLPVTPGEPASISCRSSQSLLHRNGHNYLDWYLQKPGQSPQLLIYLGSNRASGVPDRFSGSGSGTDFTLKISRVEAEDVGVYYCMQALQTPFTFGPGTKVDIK
notes: Soluble Fab
B22: H38L54 (Fab, V domains shown)
VH: B7 VH with T26G, A102G
VL: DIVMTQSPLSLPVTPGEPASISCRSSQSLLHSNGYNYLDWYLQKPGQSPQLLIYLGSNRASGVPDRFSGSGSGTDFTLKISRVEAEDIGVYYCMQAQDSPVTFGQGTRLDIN
notes: Soluble Fab
B23: H40L53 (Fab, V domains shown)
VH: B7 VH
VL: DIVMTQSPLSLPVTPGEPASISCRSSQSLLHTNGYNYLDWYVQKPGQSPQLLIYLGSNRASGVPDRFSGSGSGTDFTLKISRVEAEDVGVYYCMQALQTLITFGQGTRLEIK
notes: Soluble Fab
B24: H41L51 (Fab, V domains shown)
VH: B7 VH with T26G, F27S, N31Y
VL: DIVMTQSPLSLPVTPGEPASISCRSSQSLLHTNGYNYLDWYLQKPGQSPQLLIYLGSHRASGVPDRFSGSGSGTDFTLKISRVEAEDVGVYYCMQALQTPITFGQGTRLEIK
notes: Soluble Fab
B25: H40L42 (Fab, V domains shown)
VH: B7 VH
VL: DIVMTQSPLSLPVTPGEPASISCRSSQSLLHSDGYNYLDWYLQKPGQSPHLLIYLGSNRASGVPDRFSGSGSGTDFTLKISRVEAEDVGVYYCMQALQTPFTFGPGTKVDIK
notes: Soluble Fab
B26: H39L43 (Fab, V domains shown)
VH: QVQLVESGGGVVQPGRSLRLSCAASGFTFSNYAMHWVRQAPGKGLEWVAVISYDGSNKYYADSVKGRFTISRDNSKNTLYLQMNSLRPEDTAVYYCARGGVAAFDYWGQGTLVTV
VL: not shown
notes: Soluble Fab
B27: H39L44 (Fab, V domains shown)
VH: B26 VH
VL: B17 VL
notes: Soluble Fab
B28: H39L46 (Fab, V domains shown)
VH: B26 VH
VL: DIVMTQSPLSLPVTPGEPASISCRSSQSLLHSNGNNYLDWYLQKPGQSPQLLIYLASNRASGVPDRFSGSGSGTDFTLKISRVEPEDVGLYYCMQALQTPLTFGGGSKVEIK
notes: Soluble Fab
B29: H39L37 (Fab, V domains shown)
VH: B26 VH
VL: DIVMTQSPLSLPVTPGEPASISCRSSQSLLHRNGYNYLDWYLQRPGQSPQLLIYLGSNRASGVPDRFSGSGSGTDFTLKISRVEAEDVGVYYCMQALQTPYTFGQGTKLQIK
notes: Soluble Fab

biological target: T1, GPIIb/IIIa on intact human platelets (human, UniProt P08514 32-1039; P05106 27-788); assay: immunoprecipitation from biotinylated platelets; agrees with ELISA and Glanzmann platelet flow cytometry;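 note: precipitated biotin-labelled platelet membrane proteins visualized with biotinylated horseradish peroxidase-avidin complexes, scored for polypeptides behaving like GPIIb/IIIa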
T1 construct: whole, on cells; also called platelet GPIIb/IIIa; αIIbβ3
Source text: Precipitated, biotinylated platelet membrane proteins were detected with biotinylated horseradish peroxidase-avidin complexes (ABC Staining Kit, Pierce).

Binding result, no binding:
B1
B2
B3
B4
B5
B6
B7
B8
B9
B10
B11
B12
B13
B14
B15
B16
B17
B18
B19
B20
B21
B22
B23
B24
B25
B26
B27
B28
B29

biological target: T2, GPIa/IIa on a stable K562 cell line (UniProt P17301 30-1181; P05556 21-798, limits assumed); assay: flow cytometry on K562 cells expressing GPIa/IIa
T2 construct: whole, on cells; also called K562 cell line expressing GPIa/IIa

Binding result, no binding:
B1
B2
B3
B4
B5
B6
B7
B8
B9
B10
B11
B12
B13
B14
B15
B16
B17
B18
B19
B20
B21
B22
B23
B24
B25
B26
B27
B28
B29
